Measured values: article PMC2749708

Columns and labels:
[1] = molecular target: EspFU three-repeat fragment; test: AUC + other: binding assays
[2] = molecular target: N-WASP GBD (amino acids 214-274) (UniProt O08816)
Sequence of UniProt O08816 (O08816 214-274): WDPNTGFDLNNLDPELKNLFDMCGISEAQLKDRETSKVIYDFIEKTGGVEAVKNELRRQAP

Sequence of EspFU three-repeat fragment (C6UYI3 whole entry, the tested form may be a part): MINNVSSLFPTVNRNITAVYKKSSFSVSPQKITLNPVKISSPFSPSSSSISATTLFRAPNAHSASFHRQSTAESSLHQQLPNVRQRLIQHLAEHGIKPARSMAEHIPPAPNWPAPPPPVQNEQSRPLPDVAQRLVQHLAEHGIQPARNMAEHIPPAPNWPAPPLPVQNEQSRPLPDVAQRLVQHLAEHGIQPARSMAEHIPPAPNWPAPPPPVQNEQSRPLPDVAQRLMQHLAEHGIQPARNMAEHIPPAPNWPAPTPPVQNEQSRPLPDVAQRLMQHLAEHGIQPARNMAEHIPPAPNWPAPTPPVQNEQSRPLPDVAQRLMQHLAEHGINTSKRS

| Substance | stoichiometry N [1] | Kd [2] [nM] |
| --- | --- | --- |
| N-WASP GBD (domain or fragment) | 3 |  |
| one EspFU repeat (domain or fragment) |  | 18 |
